The test addresses native OmpL1, 31-kDa outer membrane protein of Leptospira alstoni (Leptospira alstoni). Nature of the test: immunoelectron microscopy of intact L. alstoni, protein G-colloidal gold (control serum).

For “preimmune serum from the same rabbit as the anti-OmpL1 antiserum (control serum)”, the gold particles per twenty organisms (particles per twenty organisms) is 1.

Source of the values: patent EP0693936B1.
